Assays:
Assay in all cases: cell-based or functional assay
[1] = target: HIV-1 Env of strain Du156.12 (HIV-1)
[2] = target: Env of HIV-1 strain Ce704809221_1B3 (HIV-1)
[3] = target: Env of HIV-1 strain ZM109F.PB4 (HIV-1)
[4] = target: HIV-1 Env of strain 6535.3 (HIV-1)
[5] = target: Env of HIV-1 strain CNE5 (HIV-1)
[6] = target: Env of HIV-1 strain HIV-001428-2.42 (HIV-1)
[7] = target: Env of HIV-1 strain Ce0393_C3 (HIV-1)
[8] = target: HIV-1 Env of strain 1012_11_TC21_3257 (HIV-1)
[9] = target: HIV-1 Env of strain CNE17 (HIV-1)
[10] = target: HIV-1 Env of strain 62357_14_D3_4589 (HIV-1)
[11] = target: Env of HIV-1 strain WITO4160.33 (HIV-1)
[12] = target: Env of HIV-1 strain C2101.c01 (HIV-1)
[13] = target: Env of HIV-1 strain BJOX028000.10.3 (HIV-1)
[14] = target: Env of HIV-1 strain 6811.v7.c18 (HIV-1)
[15] = target: Env of HIV-1 strain BF1266.431a (HIV-1)
[16] = target: HIV-1 Env of strain Q461.e2 (HIV-1)
[17] = target: Env of HIV-1 strain 89-F1_2_25 (HIV-1)
[18] = target: HIV-1 Env of strain BJOX010000.06.2 (HIV-1)
[19] = target: HIV-1 Env of strain C2101.c01 (HIV-1)
[20] = target: HIV-1 Env of strain 3103.v3.c10 (HIV-1)
[21] = target: Env of HIV-1 strain CNE21 (HIV-1)
[22] = target: HIV-1 Env of strain HIV-001428-2.42 (HIV-1)
[23] = target: Env of HIV-1 strain CNE53 (HIV-1)
[24] = target: HIV-1 Env of strain BF1266.431a (HIV-1)
[25] = target: HIV-1 Env of strain 191821_E6_1 (HIV-1)
[26] = target: HIV-1 Env of strain 9004SS_A3_4 (HIV-1)
[27] = target: Env of HIV-1 strain 3103.v3.c10 (HIV-1)
[28] = target: HIV-1 Env of strain ZM135M.PL10a (HIV-1)
[29] = target: Env of HIV-1 strain Ce2060_G9 (HIV-1)
[30] = target: HIV-1 Env of strain T255-34 (HIV-1)
[31] = target: Env of HIV-1 strain CNE58 (HIV-1)
[32] = target: Env of HIV-1 strain CNE19 (HIV-1)
[33] = target: HIV-1 Env of strain X1632_S2_B10 (HIV-1)
[34] = target: HIV-1 Env of strain 3415.v1.c1 (HIV-1)
[35] = target: HIV-1 Env of strain AC10.0.29 (HIV-1)
[36] = target: HIV-1 Env of strain C3347.c11 (HIV-1)
[37] = target: Env of HIV-1 strain BJOX015000.11.5 (HIV-1)
[38] = target: HIV-1 Env of strain Ce2060_G9 (HIV-1)
[39] = target: HIV-1 Env of strain CNE20 (HIV-1)
[40] = target: HIV-1 Env of strain 0815.v3.c3 (HIV-1)
[41] = target: Env of HIV-1 strain BJOX010000.06.2 (HIV-1)
[42] = target: Env of HIV-1 strain 3415.v1.c1 (HIV-1)
[43] = target: Env of HIV-1 strain ZM233M.PB6 (HIV-1)
[44] = target: Env of HIV-1 strain 6240_08_TA5_4622 (HIV-1)
[45] = target: HIV-1 Env of strain X2131_C1_B5 (HIV-1)
[46] = target: Env of HIV-1 strain 6952.v1.c20 (HIV-1)
[47] = target: HIV-1 Env of strain 249M B10 (HIV-1)
[48] = target: Env of HIV-1 strain CNE52 (HIV-1)
[49] = target: HIV-1 Env of strain ZM53M.PB12 (HIV-1)
[50] = target: Env of HIV-1 strain RHPA4259.7 (HIV-1)
[51] = target: Env of HIV-1 strain T257-31 (HIV-1)

Chain of NIH45-46 (antibody) (VH): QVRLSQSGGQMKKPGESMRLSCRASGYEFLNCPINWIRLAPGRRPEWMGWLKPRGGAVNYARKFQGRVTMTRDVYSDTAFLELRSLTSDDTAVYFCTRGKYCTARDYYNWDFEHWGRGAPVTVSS
Chain of NIH45-46 (antibody) (V domain): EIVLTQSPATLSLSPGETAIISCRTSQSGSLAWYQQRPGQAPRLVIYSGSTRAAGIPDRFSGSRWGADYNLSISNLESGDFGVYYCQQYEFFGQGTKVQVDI

Substance: NIH45-46 (antibody)
- IC50, pseudovirus neutralization [1]: 0.02 µg/mL
- IC80 [2]: 0.88 µg/mL
- IC80 [3]: 0.437 µg/mL
- IC50, pseudovirus neutralization [4]: 0.14 µg/mL
- IC80 [5]: 0.41 µg/mL
- IC80 [6]: 0.01 µg/mL
- IC80 [7]: 0.936 µg/mL
- IC50, pseudovirus neutralization [8]: 0.01 µg/mL
- IC50, pseudovirus neutralization [9]: 0.261 µg/mL
- IC50, pseudovirus neutralization [10]: 0.06 µg/mL
- IC80 [11]: 0.26 µg/mL
- IC80 [12]: 31.4 µg/mL
- IC80 [13]: > 50 µg/mL
- IC80 [14]: 0.113 µg/mL
- IC80 [15]: 0.03 µg/mL
- IC50, pseudovirus neutralization [16]: 0.076 µg/mL
- IC80 [17]: > 50 µg/mL
- IC50, pseudovirus neutralization [18]: 0.87 µg/mL
- IC50, pseudovirus neutralization [19]: 4.24 µg/mL
- IC50, pseudovirus neutralization [20]: 1.77 µg/mL
- IC80 [21]: 38.1 µg/mL
- IC50, pseudovirus neutralization [22]: 0.001 µg/mL
- IC80 [23]: 0.039 µg/mL
- IC50, pseudovirus neutralization [24]: 0.01 µg/mL
- IC50, pseudovirus neutralization [25]: 0.09 µg/mL
- IC50, pseudovirus neutralization [26]: 0.18 µg/mL
- IC80 [27]: 6.15 µg/mL
- IC50, pseudovirus neutralization [28]: 0.59 µg/mL
- IC80 [29]: 0.29 µg/mL
- IC50, pseudovirus neutralization [30]: 0.71 µg/mL
- IC80 [31]: 2.08 µg/mL
- IC80 [32]: 0.37 µg/mL
- IC50, pseudovirus neutralization [33]: 0.07 µg/mL
- IC50, pseudovirus neutralization [34]: 0.022 µg/mL
- IC50, pseudovirus neutralization [35]: 0.56 µg/mL
- IC50, pseudovirus neutralization [36]: 0.029 µg/mL
- IC80 [37]: 0.38 µg/mL
- IC50, pseudovirus neutralization [38]: 0.058 µg/mL
- IC50, pseudovirus neutralization [39]: 7.83 µg/mL
- IC50, pseudovirus neutralization [40]: 0.014 µg/mL
- IC80 [41]: 6.37 µg/mL
- IC80 [42]: 0.086 µg/mL
- IC80 [43]: 14.2 µg/mL
- IC80 [44]: 1.55 µg/mL
- IC50, pseudovirus neutralization [45]: 0.23 µg/mL
- IC80 [46]: 0.07 µg/mL
- IC50, pseudovirus neutralization [47]: 0.04 µg/mL
- IC80 [48]: 0.12 µg/mL
- IC50, pseudovirus neutralization [49]: 0.175 µg/mL
- IC80 [50]: 0.047 µg/mL
- IC80 [51]: 1.38 µg/mL
